Like-named read-outs stand apart in the source and are kept apart here.

The target in test [1] is ATG9A peptide/HLA-A*02:01 complex (recombinant) (human). In words: SPR. (In general: Surface plasmon resonance follows binding to a sensor surface in real time, without labels.)
The target of test [2] is BRCA2 peptide/HLA-A*02:01 complex (recombinant) (human). In words: SPR.
Test [3] addresses CDC14A peptide/HLA-A*02:01 complex (recombinant) (human). In words: SPR.
In test [4] the target is NR2E1 peptide/HLA-A*02:01 complex (recombinant) (human). In words: SPR.
For test [5], the target named is OR1I1 peptide/HLA-A*02:01 complex (recombinant) (human). Put plainly: SPR.
Test [6] addresses OR51B6 peptide/HLA-A*02:01 complex (recombinant) (human). Put plainly: SPR.
In test [7] the target is PTP4A1 peptide/HLA-A*02:01 complex (recombinant) (human). Put plainly: SPR.
The target of test [8] is RP1 peptide/HLA-A*02:01 complex (recombinant) (human, UniProt P16213 21-119 (Pongo pygmaeus entry)). Put plainly: SPR.
Test [9] concerns the target RCL1 peptide/HLA-A*02:01 complex (recombinant) (human, UniProt P16213 21-119 (Pongo pygmaeus entry)). Put plainly: SPR.
Test [10] deals with ZNF566 peptide/HLA-A*02:01 complex (recombinant) (human). Put plainly: SPR.
Test [11] has as its target T1, AFP158/HLA-A*02:01 complex (human).
T1 construct: biotinylated on the BSP by BirA for ELISA and panning; also called biotinylated AFP158/HLA-A*02:01 complex; Bio-AFP158
In words: SPR; vs AS170036 VL1VH1.

For test [12], the target named is T1, AFP158/HLA-A*02:01 complex. In words: SPR; vs AS170036 VL1VH1. This is another data set of the same source.
Description: The experiment was carried out as follows. The crude scFv protein were captured onto the sensorchip. Different concentrations (320, 160, 40 nM) of AFP158/HLA-A*02:01 complex flowed over the sensorchip surface, and were allowed to bind the antibody fragment for 100 s followed by injection of the running buffer to allow dissociation of the complex. On-rate (kd) and off-rate (kd) were calculated based on association and dissociation curve, and were used to estimate the equilibrium dissociation constant (KD).
Test [13] concerns the target T1, AFP158/HLA-A*02:01 complex. In words: SPR, crude scFv captured.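 Further: Peptide–MHC complex flowed at several concentrations over sensorchip-captured scFv, Kd derived from on- and off-rates obtained from the association and dissociation curves.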
The target in test [14] is T1, AFP158/HLA-A*02:01 complex. Put plainly: SPR, scFv-mIgG2aFc from supernatant captured, complex as analyte.
Description: The binding affinity between selected antibodies and AFP158/HLA-A*02:01 complex was determined by surface plasmon resonance (SPR) on a BIAcore T200 instrument (GE Healthcare). The experiment was carried out as follows. The purified sdAb/scFv-mIgG2aFc protein were captured through mIgG2a-Fc onto the sensorchip. […] On-rate (kₐ) and off-rate (kd) were calculated based on association and dissociation curve, and were used to estimate the equilibrium dissociation constant (KD).
Humanized heavy chains and light chains were combined, and used to produce a series of humanized antibodies. These antibodies were synthesized as scFv-mIgG2aFc and transiently produced using HEK293 cells. The antibodies in the supernatant were subjected to SPR affinity assessment.

B1: AS170036 VL1VH1-VHS57H (scFv)
scFv: QSALTQPRSVSGSPGQSVTISCAGTSSDVGSENYVSWYQQHPGKAPKLMIYQVNKRASGVPDRFSGSKSGNTASLTISGLQAEDEADYYCASYRSSDHNIVFGGGTKLTVLGGGGSGGGGSGGGGSEVQLVESGGGLVQPGGSLRLSCAASGFTFSSYAMSWVRQAPGKGLEWVSTINSGTGHPYYADSVKGRFTISRDNSKNTLYLQMNSLRAEDTAVYYCAKNFFDGSWFLGPPAMDYWGQGTLVTVSSHHHHHH
The Kd is the equilibrium constant for the complex coming apart. A lower Kd goes with tighter binding. For the molecule B1, the binding result in test [1], in test [2], in test [3], in test [4], in test [5] and in test [6] was “no binding (tested: all below 3.5 RU)” each time. Besides, the binding result in [7], in test [8], in test [9] and in test [10] was “no binding (tested: all below 3.5 RU)” throughout. In addition, the figures for the Affinity increase in test [11] and in [12] were more than 2 fold and 6.9 fold, respectively. Further, binding in test [13] was characterised by a dissociation constant (Kd) of 35 nM.

B2: AS170036 VL1VH1-VHS57M (scFv)
scFv: QSALTQPRSVSGSPGQSVTISCAGTSSDVGSENYVSWYQQHPGKAPKLMIYQVNKRASGVPDRFSGSKSGNTASLTISGLQAEDEADYYCASYRSSDHNIVFGGGTKLTVLGGGGSGGGGSGGGGSEVQLVESGGGLVQPGGSLRLSCAASGFTFSSYAMSWVRQAPGKGLEWVSTINSGTGMPYYADSVKGRFTISRDNSKNTLYLQMNSLRAEDTAVYYCAKNFFDGSWFLGPPAMDYWGQGTLVTVSSHHHHHH
Take B2: the binding result in test [1], in test [2], in test [3], in test [4], in test [5] and in test [6] was “no binding (tested: all below 3.5 RU)” in each case. In addition, the binding result in [7], in [8], in test [9] and in [10] was “no binding (tested: all below 3.5 RU)” throughout. Moreover, the Affinity increase in test [11] is more than 2 fold; in [12], 2.7 fold. The molecule also returned a Kd in test [13] of 90 nM.

B3: AS170036 VL1VH1-VHS57K (scFv)
scFv: QSALTQPRSVSGSPGQSVTISCAGTSSDVGSENYVSWYQQHPGKAPKLMIYQVNKRASGVPDRFSGSKSGNTASLTISGLQAEDEADYYCASYRSSDHNIVFGGGTKLTVLGGGGSGGGGSGGGGSEVQLVESGGGLVQPGGSLRLSCAASGFTFSSYAMSWVRQAPGKGLEWVSTINSGTGKPYYADSVKGRFTISRDNSKNTLYLQMNSLRAEDTAVYYCAKNFFDGSWFLGPPAMDYWGQGTLVTVSSHHHHHH
For B3, the binding result in [1], in test [2], in [3], in test [4], in [5] and in test [6] was “no binding (tested: all below 3.5 RU)” each time. For the same molecule, the binding result in [7], in test [8], in test [9] and in [10] was “no binding (tested: all below 3.5 RU)” each time. The Affinity increase in test [11] is more than 2 fold; in [12], 4.4 fold. The same molecule displayed a Kd in test [13] of 56 nM.

B4: AS179723 VL1g1VH1g1 scFv-mIgG2aFc (Fc fusion, not shown: a dimerising Fc or GST)
scFv: QSVLTQPPSASGTPGQRVTISCSGSSNNIGGNYVNWYQQLPGTAPKLLIYDNKNRPSGVPDRFSGSKSGTSASLAISGLQSEDEADYYCASWDDSLSAVVFGGGTKLTVLGGGGSGGGGSGGGGSEVQLVESGGGLVQPGGSLRLSCAASGFTFLNYAMSWVRQAPGKGLEWVSSNSGAGSTYYADSVKGRFTISRDNSKNTLYLQMNSLRAEDTAVYYCAKGTNVGSWSSLHYWGQGTLVTVSS
One may read the koff as the first-order rate constant of dissociation. A low value points to slow dissociation. A word on the kon: it is the second-order rate constant of association. Low readings indicate slower complex formation, high ones faster complex formation. In test [14], B4 yielded a Kd of 320 nM, a koff of 0.029 s⁻¹ and a kon of 91000 M⁻¹ s⁻¹.

B5: AS179723 VL1g1VH1g1-N73Y scFv-mIgG2aFc (Fc fusion, not shown: a dimerising Fc or GST)
chain: QSVLTQPPSASGTPGQRVTISCSGSSNNIGGNYVNWYQQLPGTAPKLLIYDNKNRPSGVPDRFSGSKSGTSASLAISGLQSEDEADYYCASWDDSLSAVVFGGGTKLTVLGGGGSGGGGSGGGGSEVQLVESGGGLVQPGGSLRLSCAASGFTFLNYAMSWVRQAPGKGLEWVSSNSGAGSTYYADSVKGRFTISRDYSKNTLYLQMNSLRAEDTAVYYCAKGTNVGSWSSLHYWGQGTLVTVSS
notes: Humanized
As for B5, the Kd in test [14] stood at 56 nM.

B6: AS179723 VL1VH1g1 scFv-mIgG2aFc (Fc fusion, not shown: a dimerising Fc or GST)
scFv: QSVLTQPPSASGTPGQRVTISCTGSSNNIGGNYVNWYQQLPGTAPKLLIYDNKNRPSGVPDRFSGSKSGTSASLAISGLQSEDEADYYCASWDDSLSAVVFGGGTKLTVLGGGGSGGGGSGGGGSEVQLVESGGGLVQPGGSLRLSCAASGFTFLNYAMSWVRQAPGKGLEWVSSNSGAGSTYYADSVKGRFTISRDNSKNTLYLQMNSLRAEDTAVYYCAKGTNVGSWSSLHYWGQGTLVTVSS
Take B6: in test [14], binding was put at a Kd of 310 nM, the koff was 0.03 s⁻¹ and the kon amounted to 99000 M⁻¹ s⁻¹.

B7: AS179723 VL1VH1 scFv-mIgG2aFc (Fc fusion, not shown: a dimerising Fc or GST)
scFv: QSVLTQPPSASGTPGQRVTISCTGSSNNIGGNYVNWYQQLPGTAPKLLIYDNKNRPSGVPDRFSGSKSGTSASLAISGLQSEDEADYYCASWDDSLSAVVFGGGTKLTVLGGGGSGGGGSGGGGSEVQLVESGGGLVQPGGSLRLSCAASGFTFLNYAMSWVRQAPGKGLEWVSSNSGAGSTYYSDSVKGRFTISRDNSKNTLYLQMNSLRAEDTAVYYCAKGTNVGSWSSLHYWGQGTLVTVSS
In test [14], B7 returned a dissociation constant (Kd) of 320 nM, a koff of 0.031 s⁻¹ and a kon of 98000 M⁻¹ s⁻¹.

B8: AS179723 VL1g1VH1 scFv-mIgG2aFc (Fc fusion, not shown: a dimerising Fc or GST)
scFv: QSVLTQPPSASGTPGQRVTISCSGSSNNIGGNYVNWYQQLPGTAPKLLIYDNKNRPSGVPDRFSGSKSGTSASLAISGLQSEDEADYYCASWDDSLSAVVFGGGTKLTVLGGGGSGGGGSGGGGSEVQLVESGGGLVQPGGSLRLSCAASGFTFLNYAMSWVRQAPGKGLEWVSSNSGAGSTYYSDSVKGRFTISRDNSKNTLYLQMNSLRAEDTAVYYCAKGTNVGSWSSLHYWGQGTLVTVSS
With B8, in test [14], the dissociation constant Kd was 360 nM, the dissociation rate constant (koff) stood at 0.034 s⁻¹ and the kon was 93000 M⁻¹ s⁻¹.

Values taken from US20240279318A1 (NANJING LEGEND BIOTECH, published 2024).
